The assay concerns the target recombinant influenza HA3-protein (from H3N2, Wyoming, March 2003, Sino Biological Inc.) (Influenza virus H3N2 (Wyoming, March 2003)). The assay can be described thus: SPR imaging (IBIS MX96), antibody captured on anti-human-IgG chip, HA3 1 ug/ml; global 1:1 fit in Scrubber2.

B1: AT10_004 mutant C (antibody, V domains shown)
VH: QVQLVQSGAEVRKPGASVKVSCKASGYTFTRHGISWVRQAPGQGLEWMGWISAYTGDTDYAQKFQGRVTMTTDTSTNTAYMELRSLRSDDAAVYYCARLRLQGEVVVPPSQSNWFDPWGQGTLVTVSS
VL: EIVLTQSPATLSLYPGERATLSCRASQSVSRFLAWYQQKPGQAPRLLIYDASNRATGIPARFSGSGSGTDFTLTISSLEPEDFAVYYCQQRYNWLKITFGQGTRLEIKG
For B1, the Kd turned out to be 0.06 nM, the koff was 1e-06 s⁻¹ and the kon is 17000 M⁻¹ s⁻¹.

B2: AT10_004 mutant B (antibody, V domains shown)
VH: QVQLVQSGAEVRKPGASVKVSCKASGYTFTRHGISWVRQAPGQGLEWMGWISAYTGDTDYAQKFQGRVTMTTDTSTNTAYMELRSLRSDDAAVYYCARLRLQGEVVVPPSQSNWFDPWGQGTLVTVSS
VL: EIVLTQSPATLSLYPGERATLSCRASQSVSRYLAWYQQKPGQAPRLLIYDASNRATGIPARFSGSGSGTDFTLTISSLEPEDFAVYYCQQRYNWLKITFGQGTRLEIKG
Consider B2, for which the Kd worked out at 0.05 nM, the koff was determined as 1e-06 s⁻¹ and the kon was 19000 M⁻¹ s⁻¹.

Broadly, the Kd is a measure of binding affinity in units of concentration. In general, koff refers to the first-order rate constant of dissociation. The term kon denotes a measure of how fast the partners come together.

Values taken from patent US9969795.
